Assay results taken from paper PMC6555819, “Comprehensive study of nuclear receptor DNA binding provides a revised framework for understanding receptor specificity”.

What was measured:
[1] = biological target: PPARa:RXRa (Homo sapiens, UniProt Q07869;P19793 full;full); test: no ligand; PBM; 270 nM : 90 nM RXRa; PBS pH 7.4, 2% milk, 0.02% Triton X-100, 1 mM DTT, BSA, 0.4 mg/ml salmon testes DNA; conditions: tags: GST kept;His cleaved; copies: 1;1; label: surface-attached array probe
Outline: (§1)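 Antibodies against each partner of ligand-free nuclear receptor dimers (one per run) detected binding on custom Agilent 4×180K protein-binding microarrays after 1 h incubation. The double-stranded probes had 34-nt variable regions carrying direct-repeat seeds, single-nucleotide variants, half-site ablations and random human genomic background sequences. Binding z-scores, from regression-normalized fluorescence, use the random background probes as reference.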

[2] = biological target: RARg:RXRa (Homo sapiens, UniProt P13631;P19793 full;full); test: as above; conditions: tags: His kept;His cleaved; copies: 1;1; label: surface-attached array probe
Outline: as §1

[3] = biological target: LXRa:RXRa (Homo sapiens, UniProt Q13133;P19793 full;full); test: as above; conditions: tags: His kept;His cleaved; copies: 1;1; label: surface-attached array probe
Outline: as §1

[4] = biological target: LXRb:RXRa (Homo sapiens, UniProt P55055;P19793 full;full); test: as above; conditions: tags: His kept;His cleaved; copies: 1;1; label: surface-attached array probe
Outline: as §1

[5] = biological target: FXR:RXRa (Homo sapiens, UniProt Q96RI1;P19793 full;full); test: as above; conditions: tags: His kept;His cleaved; copies: 1;1; label: surface-attached array probe
Outline: as §1

[6] = biological target: RARb:RXRa (Homo sapiens, UniProt P10826;P19793 full;full); test: as above; conditions: tags: His kept;His cleaved; copies: 1;1; label: surface-attached array probe
Outline: as §1

[7] = biological target: RXRa (Homo sapiens, UniProt P19793); test: no ligand; PBM; 180 nM; PBS pH 7.4, 2% milk, 0.02% Triton X-100, 1 mM DTT, BSA, 0.4 mg/ml salmon testes DNA; conditions: tags: His cleaved; chain copies: 2; label: surface-attached array probe
[8] = biological target: PXR:RXRa (Homo sapiens, UniProt O75469;P19793 full;full); test: no ligand; PBM; 270 nM : 90 nM RXRa; PBS pH 7.4, 2% milk, 0.02% Triton X-100, 1 mM DTT, BSA, 0.4 mg/ml salmon testes DNA; conditions: tags: His kept;His cleaved; copies: 1;1; label: surface-attached array probe
Outline: as §1

[9] = biological target: VDR:RXRa (Homo sapiens, UniProt P11473;P19793 full;full); test: as above; conditions: tags: His kept;His cleaved; copies: 1;1; label: surface-attached array probe
Outline: as §1

RARg:RXRa, sequence (P13631 whole entry, chain 1 of 2): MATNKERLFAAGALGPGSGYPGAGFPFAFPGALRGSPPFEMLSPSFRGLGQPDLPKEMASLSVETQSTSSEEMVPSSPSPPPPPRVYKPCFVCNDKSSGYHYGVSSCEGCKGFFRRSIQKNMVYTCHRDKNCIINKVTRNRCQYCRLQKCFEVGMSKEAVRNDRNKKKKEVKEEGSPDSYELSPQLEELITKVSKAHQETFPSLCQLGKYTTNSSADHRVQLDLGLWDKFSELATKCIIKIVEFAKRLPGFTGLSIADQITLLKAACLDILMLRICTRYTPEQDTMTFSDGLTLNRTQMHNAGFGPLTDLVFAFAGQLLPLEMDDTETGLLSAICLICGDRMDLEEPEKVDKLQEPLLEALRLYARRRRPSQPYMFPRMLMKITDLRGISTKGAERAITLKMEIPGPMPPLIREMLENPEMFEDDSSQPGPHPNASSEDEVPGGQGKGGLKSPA
RARg:RXRa, sequence (P19793 whole entry, chain 2 of 2): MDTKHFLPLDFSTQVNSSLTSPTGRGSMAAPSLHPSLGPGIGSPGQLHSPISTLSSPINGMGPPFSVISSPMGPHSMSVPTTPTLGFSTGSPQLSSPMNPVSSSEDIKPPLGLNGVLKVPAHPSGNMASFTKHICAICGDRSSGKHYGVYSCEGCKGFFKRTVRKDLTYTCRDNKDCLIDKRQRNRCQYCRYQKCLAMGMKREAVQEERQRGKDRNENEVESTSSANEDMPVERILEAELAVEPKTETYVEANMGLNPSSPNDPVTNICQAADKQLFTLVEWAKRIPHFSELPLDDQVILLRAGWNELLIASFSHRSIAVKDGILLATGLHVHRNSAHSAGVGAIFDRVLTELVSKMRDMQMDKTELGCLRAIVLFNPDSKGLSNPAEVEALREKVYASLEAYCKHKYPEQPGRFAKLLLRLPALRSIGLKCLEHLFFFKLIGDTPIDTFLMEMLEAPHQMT
PXR:RXRa, sequence (O75469 whole entry, chain 1 of 2): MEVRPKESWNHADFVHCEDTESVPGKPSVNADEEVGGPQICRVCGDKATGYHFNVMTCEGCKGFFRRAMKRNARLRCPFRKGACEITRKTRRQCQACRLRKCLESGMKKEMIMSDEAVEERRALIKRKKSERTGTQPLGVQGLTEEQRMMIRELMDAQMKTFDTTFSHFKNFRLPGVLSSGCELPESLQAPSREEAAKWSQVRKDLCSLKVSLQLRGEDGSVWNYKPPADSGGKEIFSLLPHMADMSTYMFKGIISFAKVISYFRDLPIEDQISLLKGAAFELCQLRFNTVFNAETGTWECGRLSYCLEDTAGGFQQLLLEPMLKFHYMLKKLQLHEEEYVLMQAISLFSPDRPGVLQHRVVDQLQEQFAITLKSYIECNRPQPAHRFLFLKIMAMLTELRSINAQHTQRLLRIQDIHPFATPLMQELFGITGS
PXR:RXRa, sequence (P19793 whole entry, chain 2 of 2): as the sequence (P19793 whole entry, chain 2 of 2) above
RXRa, sequence (P19793 whole entry): as the sequence (P19793 whole entry, chain 2 of 2) above
PPARa:RXRa, sequence (Q07869 whole entry, chain 1 of 2): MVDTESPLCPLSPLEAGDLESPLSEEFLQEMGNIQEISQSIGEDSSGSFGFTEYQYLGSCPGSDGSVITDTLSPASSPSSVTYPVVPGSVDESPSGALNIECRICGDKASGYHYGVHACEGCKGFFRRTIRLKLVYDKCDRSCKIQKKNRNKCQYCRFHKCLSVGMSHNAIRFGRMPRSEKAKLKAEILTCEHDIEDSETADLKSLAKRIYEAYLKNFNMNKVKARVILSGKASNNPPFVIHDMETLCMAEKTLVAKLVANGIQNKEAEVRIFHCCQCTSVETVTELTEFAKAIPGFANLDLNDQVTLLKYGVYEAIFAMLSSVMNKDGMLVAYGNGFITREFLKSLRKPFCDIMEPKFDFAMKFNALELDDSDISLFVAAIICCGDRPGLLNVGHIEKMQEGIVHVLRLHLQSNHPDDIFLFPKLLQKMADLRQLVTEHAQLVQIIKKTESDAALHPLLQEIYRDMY
PPARa:RXRa, sequence (P19793 whole entry, chain 2 of 2): as the sequence (P19793 whole entry, chain 2 of 2) above
FXR:RXRa, sequence (Q96RI1 whole entry, chain 1 of 2): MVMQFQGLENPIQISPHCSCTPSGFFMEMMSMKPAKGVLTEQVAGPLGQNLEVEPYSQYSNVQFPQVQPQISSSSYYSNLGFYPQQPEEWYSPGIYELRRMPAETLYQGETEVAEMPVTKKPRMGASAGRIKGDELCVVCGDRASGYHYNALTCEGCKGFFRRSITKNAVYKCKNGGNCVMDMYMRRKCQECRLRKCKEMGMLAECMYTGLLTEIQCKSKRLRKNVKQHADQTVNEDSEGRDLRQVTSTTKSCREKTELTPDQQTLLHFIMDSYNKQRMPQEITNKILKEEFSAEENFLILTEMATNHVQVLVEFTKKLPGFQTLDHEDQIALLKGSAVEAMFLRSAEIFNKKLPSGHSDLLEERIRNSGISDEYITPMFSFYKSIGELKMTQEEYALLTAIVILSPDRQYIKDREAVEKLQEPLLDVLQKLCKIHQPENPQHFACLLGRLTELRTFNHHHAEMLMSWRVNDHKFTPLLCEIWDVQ
FXR:RXRa, sequence (P19793 whole entry, chain 2 of 2): as the sequence (P19793 whole entry, chain 2 of 2) above
LXRb:RXRa, sequence (P55055 whole entry, chain 1 of 2): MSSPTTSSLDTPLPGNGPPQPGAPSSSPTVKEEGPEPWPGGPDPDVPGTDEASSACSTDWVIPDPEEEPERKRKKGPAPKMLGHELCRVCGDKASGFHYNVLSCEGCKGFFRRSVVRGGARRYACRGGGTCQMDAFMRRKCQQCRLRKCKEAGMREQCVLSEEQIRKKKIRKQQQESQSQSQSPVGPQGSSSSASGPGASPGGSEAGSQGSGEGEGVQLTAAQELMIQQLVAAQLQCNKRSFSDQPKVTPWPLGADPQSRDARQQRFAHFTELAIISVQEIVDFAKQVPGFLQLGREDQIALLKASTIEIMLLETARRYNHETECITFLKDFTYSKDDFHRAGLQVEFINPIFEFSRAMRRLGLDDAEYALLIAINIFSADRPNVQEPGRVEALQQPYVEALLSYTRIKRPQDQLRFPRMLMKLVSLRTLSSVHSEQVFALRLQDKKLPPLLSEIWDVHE
LXRb:RXRa, sequence (P19793 whole entry, chain 2 of 2): as the sequence (P19793 whole entry, chain 2 of 2) above
RARb:RXRa, sequence (P10826 whole entry, chain 1 of 2): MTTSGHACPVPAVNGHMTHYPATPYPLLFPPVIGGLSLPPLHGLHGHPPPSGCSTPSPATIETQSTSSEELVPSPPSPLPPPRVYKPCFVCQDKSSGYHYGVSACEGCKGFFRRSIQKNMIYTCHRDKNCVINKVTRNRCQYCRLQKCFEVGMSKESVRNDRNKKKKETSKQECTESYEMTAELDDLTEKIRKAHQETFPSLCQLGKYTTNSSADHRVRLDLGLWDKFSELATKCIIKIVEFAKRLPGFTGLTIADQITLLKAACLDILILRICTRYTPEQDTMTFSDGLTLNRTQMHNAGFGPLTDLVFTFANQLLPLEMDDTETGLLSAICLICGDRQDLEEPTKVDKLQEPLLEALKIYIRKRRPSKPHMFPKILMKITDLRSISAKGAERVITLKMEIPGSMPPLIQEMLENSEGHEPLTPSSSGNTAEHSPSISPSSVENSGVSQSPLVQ
RARb:RXRa, sequence (P19793 whole entry, chain 2 of 2): as the sequence (P19793 whole entry, chain 2 of 2) above
LXRa:RXRa, sequence (Q13133 whole entry, chain 1 of 2): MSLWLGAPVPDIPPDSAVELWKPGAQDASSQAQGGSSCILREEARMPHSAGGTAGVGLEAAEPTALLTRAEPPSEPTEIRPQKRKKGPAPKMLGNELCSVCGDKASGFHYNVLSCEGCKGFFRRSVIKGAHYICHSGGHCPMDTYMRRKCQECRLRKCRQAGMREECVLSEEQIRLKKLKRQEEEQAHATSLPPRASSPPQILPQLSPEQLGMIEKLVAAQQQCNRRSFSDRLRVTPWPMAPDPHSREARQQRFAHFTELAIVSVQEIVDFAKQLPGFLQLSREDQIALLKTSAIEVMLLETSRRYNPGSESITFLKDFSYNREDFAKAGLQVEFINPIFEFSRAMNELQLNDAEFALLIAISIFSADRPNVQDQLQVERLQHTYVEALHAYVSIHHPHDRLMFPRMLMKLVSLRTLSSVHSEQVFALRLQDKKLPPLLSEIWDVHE
LXRa:RXRa, sequence (P19793 whole entry, chain 2 of 2): as the sequence (P19793 whole entry, chain 2 of 2) above
VDR:RXRa, sequence (P11473 whole entry, chain 1 of 2): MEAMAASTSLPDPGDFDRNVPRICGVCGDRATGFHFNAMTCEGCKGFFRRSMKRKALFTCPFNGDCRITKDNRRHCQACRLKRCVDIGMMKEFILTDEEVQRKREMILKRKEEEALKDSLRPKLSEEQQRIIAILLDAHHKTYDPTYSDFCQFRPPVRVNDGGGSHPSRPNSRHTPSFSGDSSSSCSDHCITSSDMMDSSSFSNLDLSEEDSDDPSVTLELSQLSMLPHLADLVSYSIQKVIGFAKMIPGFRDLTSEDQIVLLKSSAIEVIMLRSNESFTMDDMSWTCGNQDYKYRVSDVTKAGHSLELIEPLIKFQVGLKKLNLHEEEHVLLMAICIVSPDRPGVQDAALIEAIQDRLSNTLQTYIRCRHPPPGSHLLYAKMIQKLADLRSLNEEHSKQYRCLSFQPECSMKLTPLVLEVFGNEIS
VDR:RXRa, sequence (P19793 whole entry, chain 2 of 2): as the sequence (P19793 whole entry, chain 2 of 2) above

| Binder | binding signal [1] | binding signal [2] | binding signal [3] | binding signal [4] | binding signal [5] | binding signal [6] | binding signal [7] | binding signal [8] | binding signal [9] |
| --- | --- | --- | --- | --- | --- | --- | --- | --- | --- |
| NRC3_wobSeed21_DR0_T11G_o1 (dsDNA) DNA 1: GCCGTCAAAGGTCAAGGTAACGTAACAGAAAGCAGCGCGATTGACAGCGTAGAATGAAGG DNA 2: CCTTCATTCTACGCTGTCAATCGCGCTGCTTTCTGTTACGTTACCTTGACCTTTGACGGC | 6.99 PBM z-score against 500 random probes | 7.8 PBM z-score against 500 random probes | 6.81 PBM z-score against 500 random probes | 6.12 PBM z-score against 500 random probes | 9.02 PBM z-score against 500 random probes | 6.57 PBM z-score against 500 random probes | 8.42 PBM z-score against 500 random probes | – | – |
| NRC3_wobSeed45_DR1_A8G_o1 (dsDNA) DNA 1: GCTGTCAGAGTTCAAAGGTAACGTAAGTATCCACACGCGATTGACAGCGTAGAATGAAGG DNA 2: CCTTCATTCTACGCTGTCAATCGCGTGTGGATACTTACGTTACCTTTGAACTCTGACAGC | – | – | – | – | – | – | – | 6.41 PBM z-score against 500 random probes | – |
| NRC3_wobSeed133_DR5_C7A_o1 (dsDNA) DNA 1: GCCGTCAAAGGTCAATGCTAGGTCAGTGAAAGCATTGCGATTGACAGCGTAGAATGAAGG DNA 2: CCTTCATTCTACGCTGTCAATCGCAATGCTTTCACTGACCTAGCATTGACCTTTGACGGC | 6.56 PBM z-score against 500 random probes | 8.73 PBM z-score against 500 random probes | 6.75 PBM z-score against 500 random probes | 6.22 PBM z-score against 500 random probes | 8.38 PBM z-score against 500 random probes | 6.04 PBM z-score against 500 random probes | 8.08 PBM z-score against 500 random probes | – | – |
| NRC3_wobSeed121_DR5_C7A_o1 (dsDNA) DNA 1: GCCAAAATAGGTCACCGGAAGGTCAAAGTCCGCATGGCGATTGACAGCGTAGAATGAAGG DNA 2: CCTTCATTCTACGCTGTCAATCGCCATGCGGACTTTGACCTTCCGGTGACCTATTTTGGC | – | 9.04 PBM z-score against 500 random probes | 7 PBM z-score against 500 random probes | 6.15 PBM z-score against 500 random probes | – | 5.81 PBM z-score against 500 random probes | 7.97 PBM z-score against 500 random probes | – | 6.58 PBM z-score against 500 random probes |
| NRC3_wobSeed25_DR1_C7A_o1 (dsDNA) DNA 1: GCCAAAATAGGTCAAAGGTCAAAGTCGAGCCAACCAGCGATTGACAGCGTAGAATGAAGG DNA 2: CCTTCATTCTACGCTGTCAATCGCTGGTTGGCTCGACTTTGACCTTTGACCTATTTTGGC | – | 9.5 PBM z-score against 500 random probes | 7.77 PBM z-score against 500 random probes | 7.8 PBM z-score against 500 random probes | 8.93 PBM z-score against 500 random probes | 6.18 PBM z-score against 500 random probes | 10.9 PBM z-score against 500 random probes | – | 7.13 PBM z-score against 500 random probes |
| NRC3_wobSeed25_DR1_A6G_o1 (dsDNA) DNA 1: GCCAAGCTAGGTCAAAGGTCAAAGTCGAGCCAACCAGCGATTGACAGCGTAGAATGAAGG DNA 2: CCTTCATTCTACGCTGTCAATCGCTGGTTGGCTCGACTTTGACCTTTGACCTAGCTTGGC | – | – | – | – | – | – | – | 7.42 PBM z-score against 500 random probes | – |
| NRC3_wobSeed130_DR5_G14A_o1 (dsDNA) DNA 1: GCCTCGAAAGGTCATGCTCAGGTGAGTATACCAAACGCGATTGACAGCGTAGAATGAAGG DNA 2: CCTTCATTCTACGCTGTCAATCGCGTTTGGTATACTCACCTGAGCATGACCTTTCGAGGC | 6.66 PBM z-score against 500 random probes | 7.89 PBM z-score against 500 random probes | 7.19 PBM z-score against 500 random probes | 5.85 PBM z-score against 500 random probes | 8.36 PBM z-score against 500 random probes | 5.96 PBM z-score against 500 random probes | 8.8 PBM z-score against 500 random probes | – | – |
| NRC3_wobSeed130_DR5_T29C_o1 (dsDNA) DNA 1: GCCTCGAAAGGTCGTGCTCAGGTGAGTACACCAAACGCGATTGACAGCGTAGAATGAAGG DNA 2: CCTTCATTCTACGCTGTCAATCGCGTTTGGTGTACTCACCTGAGCACGACCTTTCGAGGC | – | – | – | – | – | – | – | 3.76 PBM z-score against 500 random probes | – |
| NRC3_random_hg19_484_o1 (dsDNA) DNA 1: GCCAGCAAACTAGGAATCAAGAAACTGAGTTCTGGCGCGATTGACAGCGTAGAATGAAGG DNA 2: CCTTCATTCTACGCTGTCAATCGCGCCAGAACTCAGTTTCTTGATTCCTAGTTTGCTGGC | -0.5 PBM z-score against 500 random probes | – | -0.57 PBM z-score against 500 random probes | -0.51 PBM z-score against 500 random probes | – | – | -0.22 PBM z-score against 500 random probes | – | – |
| NRC3_wobSeed10_DR0_G14A_o1 (dsDNA) DNA 1: GCATCGAAAGGTCAAGGTGAGTATAGAGAAAGGGAAGCGATTGACAGCGTAGAATGAAGG DNA 2: CCTTCATTCTACGCTGTCAATCGCTTCCCTTTCTCTATACTCACCTTGACCTTTCGATGC | 7.41 PBM z-score against 500 random probes | 7.61 PBM z-score against 500 random probes | 7.08 PBM z-score against 500 random probes | 5.9 PBM z-score against 500 random probes | 8.27 PBM z-score against 500 random probes | 6.24 PBM z-score against 500 random probes | 8.13 PBM z-score against 500 random probes | – | – |
